Here are results for four molecules from article PMC2723105, “DNA binding by Corynebacterium glutamicum TetR-type transcription regulator AmtR”.

Data set [1] concerns the target T1, AmtR-MBP wild type (Corynebacterium glutamicum ATCC13032, UniProt H7C699 2-222).
T1 sequence: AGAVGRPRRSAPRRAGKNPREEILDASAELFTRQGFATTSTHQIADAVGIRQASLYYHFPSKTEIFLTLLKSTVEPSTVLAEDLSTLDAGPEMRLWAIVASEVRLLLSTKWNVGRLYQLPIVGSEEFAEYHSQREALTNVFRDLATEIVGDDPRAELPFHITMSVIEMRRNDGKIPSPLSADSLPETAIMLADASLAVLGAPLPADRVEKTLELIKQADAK
The data set is described as follows: EMSA. The following applies: EMSA: DIG gel shift kit (Roche) conditions, 0.04 ng DNA, native 6% PAGE in 0.5x TBE; SPR: HBS-EP running buffer, 25 °C, BIAcoreX, nonspecific 30-mer DNA in the ….

The target of data set [2] is T2, AmtR-MBP wild type (Corynebacterium glutamicum ATCC13032) (UniProt H7C699).
T2 sequence: T1 sequence
The experiment in a line: EMSA. The following applies: EMSA: DIG gel shift kit (Roche) conditions, 0.04 ng DNA, native 6% PAGE in 0.5x TBE; SPR: HBS-EP running buffer, 25 °C, BIAcoreX, nonspecific 30-mer DNA in the ….

Data set [3] deals with T1, AmtR-MBP wild type. The experiment in a line: SPR; EMSA: DIG gel shift kit (Roche) conditions, 0.04 ng DNA, native 6% PAGE in 0.5x TBE; SPR: HBS-EP running buffer, 25 °C, BIAcoreX, nonspecific 30-mer DNA in the. The following applies: protein: recombinant; tags: N-terminal MBP (pMalc2); chain copies: 2; label: 3' biotin on forward strand; blunt.

amtB promoter PCR fragment: in data set [1], the Kd came out at 2400 nM.

Turning to “GCTGGGCTAGAAACCCGATAAGCGAGAACCACCTGTCGGATGTTGTCTGGCAGGTGGTTTTCTTTTGCCTGGGTACCACCAAAAAGCAGCTGTGATGCACTTAACAATTCATTAAATTACCTGTTAAACTATAGAAAATATCCAAAACCCTCCAAAACCTATTCTATAGATCTATTGAAATTAGTTTCTGTAGGTCTATAGTTAGAGCTGGTTCAAGGGGTGTCAATCCCAAAAGGCACTCCTTGAACTCATGAAAAAGCTTGACAAAACTTCAACGTCAAAGGAGGTCATCCACGC (double strand) [amtB promoter PCR fragment]”, the Kd in data set [2] was 2400 nM.

Turning to “GCCCGTGGTGTGCTCACCAATGATGAAGTCGACGCGCTGACACAGGTGTGGACTTCCGCACTGAGCTTGCAGTCGAAACGTTGGATGGATCACATCCATGATCAAGAAACCACCGCTTGGGAGCTTCCCGCGCTGCAACGTGCCACTTTTGGCGCATCGGCTCGGTTGCTTTCTGAGGTGTTGCGGTCCGTTGAAGCCCGTGAAATCGATACCATAATAGGAACTCTG (double strand) [amtR upstream DNA, additional spacing nucleotide]”, the binding result in data set [2] is “binds”.

B1: amtBp SPR 30-mer (dsDNA)
DNA 1: TAAATTACCTGTTAAACTATAGAAAATATC
DNA 2: GATATTTTCTATAGTTTAACAGGTAATTTA
Turning to B1, the binding result in data set [3] was “binds”.
